How the values were obtained:
[1] = test system: HeLa Kyoto; assay: solubility in G1/S (NP-40 vs SDS abundance) (log2 ratio); higher = more soluble; details: cell cycle stage: G1/S
[2] = test system: HeLa Kyoto; assay: thermal stability score vs G1/S (z-score of summed log2 fold changes over temperatures); higher = more thermally stable than in G1/S
[3] = test system: HeLa Kyoto; assay: melting temperature (median over replicates), in situ; higher = more thermally stable
[4] = test system: HeLa Kyoto; assay: solubility change mitosis vs G1/S (difference of NP-40 vs SDS log2 ratios) (log2 ratio difference); higher = more soluble in mitosis
[5] = cell cycle stage: early G1 (4.5 h after nocodazole release)
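For melting temperature (median over replicates), in situ in this document: HeLa Kyoto cells synchronized by double thymidine or nocodazole block, proteins quantified by TMT10plex mass spectrometry, three independent biological replicates.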
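For solubility change mitosis vs G1/S (difference of NP-40 vs SDS log2 ratios) in this document: synchronized HeLa Kyoto cells (double thymidine block for G1/S, nocodazole release for mitosis), protein amounts in NP-40 versus SDS lysates quantified by mass spectrometry, three biological replicates.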
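For solubility in G1/S (NP-40 vs SDS abundance) in this document: HeLa Kyoto cells arrested at G1/S by double thymidine block, proteins quantified by TMT10plex mass spectrometry in mild NP-40 versus SDS extracts, three biological replicates.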
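For thermal stability score vs G1/S (z-score of summed log2 fold changes over temperatures) in this document: synchronized HeLa Kyoto cells, proteins quantified by TMT10plex mass spectrometry, three biological replicates, mitosis taken 0.5 h after nocodazole release, G1/S directly after double thymidine block.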

MSRSAAASGGPRRPERHLPPAPCGAPGPPETCRTEPDGAGTMNKLRQSLRRRKPAYVPEASRPHQWQADEDAVRKGTCSFPVRYLGHVEVEESRGMHVCEDAVKKLKAMGRKSVKSVLWVSADGLRVVDDKTKDLLVDQTIEKVSFCAPDRNLDKAFSYICRDGTTRRWICHCFLALKDSGERLSHAVGCAFAACLERKQRREKECGVTAAFDASRTSFAREGSFRLSGGGRPAEREAPDKKKAEAAAAPTVAPGPAQPGHVSPTPATTSPGEKGEAGTPVAAGTTAAAIPRRHAPLEQLVRQGSFRGFPALSQKNSPFKRQLSLRLNELPSTLQRRTDFQVKGTVPEMEPPGAGDSDSINALCTQISSSFASAGAPAPGPPPATTGTSAWGEPSVPPAAAFQPGHKRTPSEAERWLEEVSQVAKAQQQQQQQQQQQQQQQQQQQQAASVAPVPTMPPALQPFPAPVGPFDAAPAQVAVFLPPPHMQPPFVPAYPGLGYPPMPRVPVVGITPSQMVANAFCSAAQLQPQPATLLGKAGAFPPPAIPSAPGSQARPRPNGAPWPPEPAPAPAPELDPFEAQWAALEGKATVEKPSNPFSGDLQKTFEIEL [NUMBL]
solubility in G1/S (log2) [1]: 0.205
thermal stability score [2, 5]: 2.8
thermal stability score ([2]; cell cycle stage: mitosis): 2.05
melting temperature ([3]; cell cycle stage: G1/S): 51.9 °C
melting temperature ([3]; cell cycle stage: mitosis): 52.3 °C
solubility change mitosis (log2) [4]: -0.00185

MSRSPDAKEDPVECPLCMEPLEIDDINFFPCTCGYQICRFCWHRIRTDENGLCPACRKPYPEDPAVYKPLSQEELQRIKNEKKQKQNERKQKISENRKHLASVRVVQKNLVFVVGLSQRLADPEVLKRPEYFGKFGKIHKVVINNSTSYAGSQGPSASAYVTYIRSEDALRAIQCVNNVVVDGRTLKASLGTTKYCSYFLKNMQCPKPDCMYLHELGDEAASFTKEEMQAGKHQEYEQKLLQELYKLNPNFLQLSTGSVDKNKNKVTPLQRYDTPIDKPSDSLSIGNGDNSQQISNSDTPSPPPGLSKSNPVIPISSSNHSARSPFEGAVTESQSLFSDNFRHPNPIPSGLPPFPSSPQTSSDWPTAPEPQSLFTSETIPVSSSTDWQAAFGFGSSKQPEDDLGFDPFDVTRKALADLIEKELSVQDQPSLSPTSLQNSSSHTTTAKGPGSGFLHPAAATNANSLNSTFSVLPQRFPQFQQHRAVYNSFSFPGQAARYPWMAFPRNSIMHLNHTANPTSNSNFLDLNLPPQHNTGLGGIPVAGEEEVKVSTMPLSTSSHSLQQGQQPTSLHTTVA [CNOT4]
solubility in G1/S (log2) [1]: 0.401
thermal stability score [2, 5]: 1.12
thermal stability score ([2]; cell cycle stage: mitosis): 0.182
melting temperature ([3]; cell cycle stage: G1/S): 52.7 °C
melting temperature ([3]; cell cycle stage: mitosis): 53 °C
solubility change mitosis (log2) [4]: 0.0198

MSRSVLQPSQQKLAEKLTILNDRGVGMLTRLYNIKKACGDPKAKPSYLIDKNLESAVKFIVRKFPAVETRNNNQQLAQLQKEKSEILKNLALYYFTFVDVMEFKDHVCELLNTIDVCQVFFDITVNFDLTKNYLDLIITYTTLMILLSRIEERKAIIGLYNYAHEMTHGASDREYPRLGQMIVDYENPLKKMMEEFVPHSKSLSDALISLQMVYPRRNLSADQWRNAQLLSLISAPSTMLNPAQSDTMPCEYLSLDAMEKWIIFGFILCHGILNTDATALNLWKLALQSSSCLSLFRDEVFHIHKAAEDLFVNIRGYNKRINDIRECKEAAVSHAGSMHRERRKFLRSALKELATVLSDQPGLLGPKALFVFMALSFARDEIIWLLRHADNMPKKSADDFIDKHIAELIFYMEELRAHVRKYGPVMQRYYVQYLSGFDAVVLNELVQNLSVCPEDESIIMSSFVNTMTSLSVKQVEDGEVFDFRGMRLDWFRLQAYTSVSKASLGLADHRELGKMMNTIIFHTKMVDSLVEMLVETSDLSIFCFYSRAFEKMFQQCLELPSQSRYSIAFPLLCTHFMSCTHELCPEERHHIGDRSLSLCNMFLDEMAKQARNLITDICTEQCTLSDQLLPKHCAKTISQAVNKKSKKQTGKKGEPEREKPGVESMRKNRLVVTNLDKLHTALSELCFSINYVPNMVVWEHTFTPREYLTSHLEIRFTKSIVGMTMYNQATQEIAKPSELLTSVRAYMTVLQSIENYVQIDITRVFNNVLLQQTQHLDSHGEPTITSLYTNWYLETLLRQVSNGHIAYFPAMKAFVNLPTENELTFNAEEYSDISEMRSLSELLGPYGMKFLSESLMWHISSQVAELKKLVVENVDVLTQMRTSFDKPDQMAALFKRLSSVDSVLKRMTIIGVILSFRSLAQEALRDVLSYHIPFLVSSIEDFKDHIPRETDMKVAMNVYELSSAAGLPCEIDPALVVALSSQKSENISPEEEYKIACLLMVFVAVSLPTLASNVMSQYSPAIEGHCNNIHCLAKAINQIAAALFTIHKGSIEDRLKEFLALASSSLLKIGQETDKTTTRNRESVYLLLDMIVQESPFLTMDLLESCFPYVLLRNAYHAVYKQSVTSSA [NCKAP1]
solubility in G1/S (log2) [1]: -0.214
thermal stability score [2, 5]: -0.278
thermal stability score ([2]; cell cycle stage: mitosis): -0.186
melting temperature ([3]; cell cycle stage: G1/S): 51.5 °C
melting temperature ([3]; cell cycle stage: mitosis): 51.1 °C
solubility change mitosis (log2) [4]: -0.159

MSRYGRYGGETKVYVGNLGTGAGKGELERAFSYYGPLRTVWIARNPPGFAFVEFEDPRDAEDAVRGLDGKVICGSRVRVELSTGMPRRSRFDRPPARRPFDPNDRCYECGEKGHYAYDCHRYSRRRRSRSRSRSHSRSRGRRYSRSRSRSRGRRSRSASPRRSRSISLRRSRSASLRRSRSGSIKGSRYFQSPSRSRSRSRSISRPRSSRSKSRSPSPKRSRSPSGSPRRSASPERMD [SRSF7]
solubility in G1/S (log2) [1]: -1.02
thermal stability score [2, 5]: -4.9
thermal stability score ([2]; cell cycle stage: mitosis): -9.15
melting temperature ([3]; cell cycle stage: G1/S): 50.4 °C
melting temperature ([3]; cell cycle stage: mitosis): 50.5 °C
solubility change mitosis (log2) [4]: 0.665

MSSAPRRPAKGADSFCTPEPESLGPGTPGFPEQEEDELHRTLGVERFEEILQEAGSRGGEEPGRSYGEEDFEYHRQSSHHIHHPLSTHLPPDARRRKTPQGPGRKPRRRPGASPTGETPTIEEGEEDEDEASEAEGARALTQPSPVSTPSSVQFFLQEDDSADRKAERTSPSSPAPLPHQEATPRASKGAQAGTQVEEAEAEAVAVASGTAGGDDGGASGRPLPKAQPGHRSYNLQERRRIGSMTGAEQALLPRVPTDEIEAQTLATADLDLMKSHRFEDVPGVRRHLVRKNAKGSTQSGREGREPGPTPRARPRAPHKPHEVFVELNELLLDKNQEPQWRETARWIKFEEDVEEETERWGKPHVASLSFRSLLELRRTLAHGAVLLDLDQQTLPGVAHQVVEQMVISDQIKAEDRANVLRALLLKHSHPSDEKDFSFPRNISAGSLGSLLGHHHGQGAESDPHVTEPLMGGVPETRLEVERERELPPPAPPAGITRSKSKHELKLLEKIPENAEATVVLVGCVEFLSRPTMAFVRLREAVELDAVLEVPVPVRFLFLLLGPSSANMDYHEIGRSISTLMSDKQFHEAAYLADEREDLLTAINAFLDCSVVLPPSEVQGEELLRSVAHFQRQMLKKREEQGRLLPTGAGLEPKSAQDKALLQMVEAAGAAEDDPLRRTGRPFGGLIRDVRRRYPHYLSDFRDALDPQCLAAVIFIYFAALSPAITFGGLLGEKTQDLIGVSELIMSTALQGVVFCLLGAQPLLVIGFSGPLLVFEEAFFSFCSSNHLEYLVGRVWIGFWLVFLALLMVALEGSFLVRFVSRFTQEIFAFLISLIFIYETFYKLVKIFQEHPLHGCSASNSSEVDGGENMTWAGARPTLGPGNRSLAGQSGQGKPRGQPNTALLSLVLMAGTFFIAFFLRKFKNSRFFPGRIRRVIGDFGVPIAILIMVLVDYSIEDTYTQKLSVPSGFSVTAPEKRGWVINPLGEKSPFPVWMMVASLLPAILVFILIFMETQITTLIISKKERMLQKGSGFHLDLLLIVAMGGICALFGLPWLAAATVRSVTHANALTVMSKAVAPGDKPKIQEVKEQRVTGLLVALLVGLSIVIGDLLRQIPLAVLFGIFLYMGVTSLNGIQFYERLHLLLMPPKHHPDVTYVKKVRTLRMHLFTALQLLCLALLWAVMSTAASLAFPFILILTVPLRMVVLTRIFTDREMKCLDANEAEPVFDEREGVDEYNEMPMPV [SLC4A2]
solubility in G1/S (log2) [1]: 0.054
thermal stability score [2, 5]: 0.464
thermal stability score ([2]; cell cycle stage: mitosis): -0.912
melting temperature ([3]; cell cycle stage: G1/S): 53.9 °C
melting temperature ([3]; cell cycle stage: mitosis): 54.1 °C
solubility change mitosis (log2) [4]: 0.0677

MSSASGLRRGHPAGGEENMTETDAFYKREMFDPAEKYKMDHRRRGIALIFNHERFFWHLTLPERRGTCADRDNLTRRFSDLGFEVKCFNDLKAEELLLKIHEVSTVSHADADCFVCVFLSHGEGNHIYAYDAKIEIQTLTGLFKGDKCHSLVGKPKIFIIQACRGNQHDVPVIPLDVVDNQTEKLDTNITEVDAASVYTLPAGADFLMCYSVAEGYYSHRETVNGSWYIQDLCEMLGKYGSSLEFTELLTLVNRKVSQRRVDFCKDPSAIGKKQVPCFASMLTKKLHFFPKSN [CASP6]
solubility in G1/S (log2) [1]: -0.374
thermal stability score [2, 5]: -0.607
thermal stability score ([2]; cell cycle stage: mitosis): -1.03
melting temperature ([3]; cell cycle stage: G1/S): 54.4 °C
melting temperature ([3]; cell cycle stage: mitosis): 56.6 °C
solubility change mitosis (log2) [4]: -0.176

MSSASVTAFEKEHLWMYLQALGFEPGPATIACGKIVSHTHLGVNMFDKLNRDAFHIISYFLFQVLDQSLTKEVFKFCWPPFDQKSDTEFRKHCCEWIKRISGECGSSFPQVVGSLFLSPGGPKFIHLMYHFARFVAMKYIKSNSKNSSHHFVETFNIKPQDLHKCIARCHFARSRFLQILQRQDCVTQKYQENAQLSVKQVRNLRSECIGLENQIKKMEPYDDHSNMEEKIQKVRSLWASVNETLMFLEKEREVVSSVLSLVNQYALDGTNVAINIPRLLLDKIEKQMFQLHIGNVYEAGKLNLLTVIQLLNEVLKVMKYERCQADQARLTVDLHYLEKETKFQKERLSDLKHMRYRIKDDLTTIRHSVVEKQGEWHKKWKEFLGLSPFSLIKGWTPSVDLLPPMSPLSFDPASEEVYAKSILCQYPASLPDAHKQHNQENGCRGDSDTLGALHDLANSPASFLSQSVSSSDRNSVTVLEKDTKMGTPKEKNEAISKKIPEFEVENSPLSDVAKNTESSAFGGSLPAKKSDPFQKEQDHLVEEVARAVLSDSPQLSEGKEIKLEELIDSLGSNPFLTRNQIPRTPENLITEIRSSWRKAIEMEENRTKEPIQMDAEHREVLPESLPVLHNQREFSMADFLLETTVSDFGQSHLTEEKVISDCECVPQKHVLTSHIDEPPTQNQSDLLNKKVICKQDLECLAFTKLSETSRMETFSPAVGNRIDVMGGSEEEFMKILDHLEVSCNKPSTNKTMLWNSFQISSGISSKSFKDNDFGILHETLPEEVGHLSFNSSSSSEANFKLEPNSPMHGGTLLEDVVGGRQTTPESDFNLQALRSRYEALKKSLSKKREESYLSNSQTPERHKPELSPTPQNVQTDDTLNFLDTCDLHTEHIKPSLRTSIGERKRSLSPLIKFSPVEQRLRTTIACSLGELPNLKEEDILNKSLDAKEPPSDLTR [HAUS6]
solubility in G1/S (log2) [1]: -0.0247
thermal stability score [2, 5]: 0.745
thermal stability score ([2]; cell cycle stage: mitosis): 1.14
melting temperature ([3]; cell cycle stage: G1/S): 48.3 °C
melting temperature ([3]; cell cycle stage: mitosis): 49.1 °C
solubility change mitosis (log2) [4]: -0.0199

MSSCSRVALVTGANRGIGLAIARELCRQFSGDVVLTARDVARGQAAVQQLQAEGLSPRFHQLDIDDLQSIRALRDFLRKEYGGLNVLVNNAAVAFKSDDPMPFDIKAEMTLKTNFFATRNMCNELLPIMKPHGRVVNISSLQCLRAFENCSEDLQERFHSETLTEGDLVDLMKKFVEDTKNEVHEREGWPNSPYGVSKLGVTVLSRILARRLDEKRKADRILVNACCPGPVKTDMDGKDSIRTVEEGAETPVYLALLPPDATEPQGQLVHDKVVQNW [CBR3]
solubility in G1/S (log2) [1]: 0.562
thermal stability score [2, 5]: -0.991
thermal stability score ([2]; cell cycle stage: mitosis): 0.085
melting temperature ([3]; cell cycle stage: G1/S): 51.4 °C
melting temperature ([3]; cell cycle stage: mitosis): 52.4 °C
solubility change mitosis (log2) [4]: -0.0459

MSSDFEGYEQDFAVLTAEITSKIARVPRLPPDEKKQMVANVEKQLEEAKELLEQMDLEVREIPPQSRGMYSNRMRSYKQEMGKLETDFKRSRIAYSDEVRNELLGDDGNSSENQRAHLLDNTERLERSSRRLEAGYQIAVETEQIGQEMLENLSHDREKIQRARERLRETDANLGKSSRILTGMLRRIIQNRILLVILGIIVVITILMAITFSVRRH [VTI1A]
solubility in G1/S (log2) [1]: 0.0215
thermal stability score [2, 5]: -4.18
thermal stability score ([2]; cell cycle stage: mitosis): -3.25
melting temperature ([3]; cell cycle stage: G1/S): 55.6 °C
melting temperature ([3]; cell cycle stage: mitosis): 55.8 °C
solubility change mitosis (log2) [4]: -0.165
